Consider two molecules from publication doi:10.64898/2025.12.14.694184 (bioRxiv, 2025).

The labels stand for the following.
B1: mouse CLCC1 N-terminal domain dimer (CLCC1-NTD-6×His) (domain or fragment, UniProt Q99LI2 19-184, looked up)
chain: HDDDWIDPTDMLNYDAASGTMRKSQVRSGTSEKKEVSPDSSEAEELSDCLHRLDSLTHKVDSCEKKKMKDYESQSNPVFRRYLNKILIEAGKLGLPDENKVEMRYDAEILLSRQTLLEIQKFLSGEEWKPGALDDALSDILINFKCHDSEAWKWQFEDYFGVDPYN
modifications: inter-molecular disulfide bonds in the dimer
B2: human TorsinA-StrepTagII-FLAG-StrepTagII (enzyme, UniProt O14656 21-332, looked up)
chain: VEPISLGLALAGVLTGYIYPRLYCLFAECCGQKRSLSREALQKDLDDNLFGQHLAKKIILNAVFGFINNPKPKKPLTLSLHGWTGTGKNFVSKIIAENIYEGGLNSDYVHLFVATLHFPHASNITLYKDQLQLWIRGNVSACARSIFIFDEMDKMHAGLIDAIKPFLDYYDLVDGVSYQKAMFIFLSNAGAERITDVALDFWRSGKQREDIKLKDIEHALSVSVFNNKNSGFWHSSLIDRNLIDYFVPFLPLEYKHLKMCIRVEMQSRGYEIDEDIVSRVAEEMTFFPKEERVFSDKGCKTVFTKLDYYYDD

The target in series [1] is B2. The experiment in a line: pull-down.
The series “non-reducing SDS-PAGE” concerns the molecule itself. Put plainly: non-reducing SDS-PAGE.
The series “native gel or EMSA” concerns the molecule itself. Put plainly: native gel or EMSA. In general terms: In EMSA bound probe runs differently from free probe, usually more slowly.

By stoichiometry N is commonly meant the number of molecules, sites or subunits per partner or assembly. In the case of B1, the binding result in series [1] is given as “binds”. The “stoichiometry N” value in the series “non-reducing SDS-PAGE” is 2. On to B2, for which, in “native gel or EMSA”, the binding result is reported as “binds”.
